Consider one molecule from PMC8547449 (2021).

The assay concerns the target T1, C4b-binding protein (human, UniProt P04003 49-597; P20851 18-252).
T1 chain 1: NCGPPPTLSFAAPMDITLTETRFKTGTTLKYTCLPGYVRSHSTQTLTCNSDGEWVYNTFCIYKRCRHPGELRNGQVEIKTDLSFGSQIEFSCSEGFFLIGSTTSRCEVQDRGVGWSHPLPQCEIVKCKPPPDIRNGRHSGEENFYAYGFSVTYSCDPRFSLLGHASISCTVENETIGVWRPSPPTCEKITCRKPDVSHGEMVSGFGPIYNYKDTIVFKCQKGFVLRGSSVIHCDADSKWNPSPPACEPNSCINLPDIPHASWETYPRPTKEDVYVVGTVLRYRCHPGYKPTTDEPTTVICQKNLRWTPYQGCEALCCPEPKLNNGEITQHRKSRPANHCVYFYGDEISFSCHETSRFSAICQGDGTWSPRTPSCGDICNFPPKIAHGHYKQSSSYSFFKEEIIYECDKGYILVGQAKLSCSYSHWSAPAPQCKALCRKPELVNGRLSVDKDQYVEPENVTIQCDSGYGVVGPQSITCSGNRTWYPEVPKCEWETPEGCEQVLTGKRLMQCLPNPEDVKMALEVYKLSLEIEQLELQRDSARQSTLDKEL
T1 chain 2: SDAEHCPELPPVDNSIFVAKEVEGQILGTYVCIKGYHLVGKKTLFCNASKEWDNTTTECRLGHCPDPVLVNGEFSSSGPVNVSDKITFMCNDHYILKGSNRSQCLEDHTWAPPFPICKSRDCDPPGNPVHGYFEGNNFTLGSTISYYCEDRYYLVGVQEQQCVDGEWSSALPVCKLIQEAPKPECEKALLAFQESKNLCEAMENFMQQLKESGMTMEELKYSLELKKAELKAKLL
Kind of assay: SPR.

B1: M28 protein, recombinant, affinity tag removed by TEV protease (natural protein)
chain: AESPKSTETSANGADKLADAYNTLLTEHEKLRDEYYTLIDAKEEEPRYKALRGENQDLREKEGKYQDKIKKLEEKEKNLEKKSEDVERHYLKKLDQEHKEQEERQKNLEELERQSQREIDKRYQEQLQKQQQLETEKQISEASRKSLSRDLEASRAAKKDLEAEHQKLKEEKQISDASRQGLSRDLEASRAAKKDLEAEHQKLKEEKQISDASRQGLSRDLEASREAKKKVEADLAEANSKLQALEKLNKELEEGKKLSEKEKAELQARLEAEAKALKEQLAKQAEELAKLKGNQTPNAKVAPQANRSRSAMTQQKR
In the case of B1, binding was characterised by a dissociation constant (Kd) of 0.188 nM.
